According to patent publication US20250034594A1, “RNA-GUIDED GENOME RECOMBINEERING AT KILOBASE SCALE” (THE BOARD OF TRUSTEES OF THE LELAND STANFORD JUNIOR …, priority 2021, published 2025):

B1: SSAP_76: SEQ ID NO: 245 (protein)
chain: ANELGIFSVDNLNMTTIKQYLDGGGKASDAELVLLINLCKQNNMNPFMKEVYFIKYGNQPAQIVVSRDFYRKRAFQNPNFAGIEVGVIVLNKDGVLEHNEGTFKTHEQELVGAWARVHLKNTEIPVYVAVSYDEYVQMKDGHPNKMWTNKPCTMLGKVAESQALRMAFPAEFSGTYGEEELPEPEKEPREVNGVKEPDRAQIESFDKEDYAARKIEELKEKAQPQKEVVKETGEVIDEITAEDF
B2: SSAP_254: SEQ ID NO: 423; Pediococcus pentosaceus (protein, listed as Pediococcus pentosaceus)
chain: MNDISKVPMKVLVQQDKVQRMLENTLKGKTRQFTTSLINVVNSNQSLADVDQMSVIKSAMVAASLDLPIDQNLGFMWLVPYKGMATPQIGYKGYIQLALRTGQYKKLNTIVVHEGEMKYWNPLTEDFEYDPKGKESDEVIGYLGYLRMINGFEKTVYWTKQNIEDHRMKFSKMSGKAKPSGVWASNYDAMALKTVMRNLLSKWGIMSIEMQQAVVQDEKAPETDVRDVTPTETNSIDSLLAPEPKGEPINDSNEATVPTNAE
B3: SSAP_299: SEQ ID NO: 468; Paenibacillus sp. JCM 10914 (protein, listed as Paenibacillus sp.)
chain: TMDYVTKIQDALDRELDAKHDALPSGFKKTRFSENCRAYVKDYKDLQKYDAEEVASVLFKGAVLGLDFLAKECHVITEGSALRFQTDYKGEMTLVKKYSVRPILDIYAKNVREGDDFREEISGGKPLIHFNPRAFNNSKITGSFAVALFTDGGMVYETMPAEEIESIREHYGKNPGSDTWEKSQGEMYKRTVLRRLCKTIEIDFDAEQSLAYEAGSSFEFDREQQPKKRSPFNPPEVEESEVLSNDGITETQ
B4: SSAP_58: SEQ ID NO: 227; Pirellula sp. SH-Sr6A (protein, listed as Pirellula sp.)
chain: SEATKEAKPETAIAKKPNGIKDWLKSDALKTQIASVAPKHMAPERVMRIALNAVSRTPKLADCTPESFMRCLLDLSSWGLEPDGRHAHLIPYGTECTLVLDYKGLVTLAYRSGWVKKIHADVVFEGDIFVYSLGTVCQHIPWEFRDDANKPEHKGHFRAAYCVVTMADGIEKHEVMTASEIDAIKAKSRSGNSGPWKDHYTEMAKKTVYRRASKWLPLSPEQADAMERDDDRIIDAVSVAVTQRLSKAAMPLIGANETGDTE
B5: SSAP_250: SEQ ID NO: 419; Streptococcus pseudoporcinus (protein, listed as Streptococcus pseudoporcinus)
chain: ANQLTVVNTLQSDAVKEKFEAVMGEKANGFVSSVLSVVTNNNLLAKADFNSVYTSAMKAAVLDLPVEPSLGMAYIVPYKGKAQFQIGYKGLIQLAQRSGKVTKLNSGKIYKGQFKSYNALSEELDIDDIYTPKEDEEVVGYFGYMKLSNGFEKITYWTKERVEKHGKKYSQSYDSKFSPWQTNFDAMAEKTVLKSILSTYAPLTIEMQNANDFDNGKNTGIEPLEVKDVTPENDNESLLSDLLEDEPSVDAETGEIMENTELDLDYGSINAK
B6: SSAP_272: SEQ ID NO: 441; Clostridium cadaveris (protein, listed as Clostridium cadaveris)
chain: ATNSSLKNQLSKKENVTIGNTMQGLLNNPKMKKRFEEILDKKAPQYMSSILNLYNGDTSLQKCEPMSVLSSSMIAATMDLPVDKNLGYAWIVPYKNKAQFQMGYKGYIQLALRTGQYKHINAIEIHEGELVNWNPLTEELEIDFTKKESDKIIGYAGYFELLNGFKKSTYWTKTQIENHRKKFSKSDYGWNKDFDAMAIKTVIRNMLSKWGILSIEMQNAYTADENIIKDSFIDDSENVSANIEDLVEADYTVNQDSLESKEEFEGTPLE
B7: SSAP_14: SEQ ID NO: 183 (protein)
chain: TTALQTLTNKLAERFEMGDGSGLVETLKSSAFAGATVSDAQMIALLVIANQYQLNPWTKEIYAFPGGNGGLTPIVGVDGWVRIINREPQYDGMEFHFTDDYSACTCTIYRKDRSKPIVVTEFMGECKKSSPAWNSHPKRMLRHKAMIQCARLAFGFTGIYDQDEAERIAENEKPPKNITPQNNVVETTAVELISEEQLSQIRQLMQVTGTEEAKILAYIGVQALNQIPKSQAEAVIKKLNLTLDKQNAEKADNGESVGEEIPL
B8: SSAP_313: SEQ ID NO: 482; Pedobacter nototheniae (protein, listed as Pedobacter nototheniae)
chain: STEQSQQQTAARVPAKFQEGTVDSILKRVSDFQNTGELVLPANYIPENAVRAAWLMLMETTDRNDKPAIEVCTKESIANAFLEMVTKGLSVVKKQCYFVVYGNKLSLEDSYIGKIAIAKREAGVKEVNAVTIYEGDIFKYENDIETGRKRILEHKQELKNINPDKIVGA
B9: SSAP_277: SEQ ID NO: 446; Nocardia terpenica (protein, listed as Nocardia terpenica)
chain: SSIAAAAESAEVTPASIINKYRDDIATVLPPKLRERIDRWIRLAIGAVNSNPELISRVRADQGASMMQALMKCAALGHEPGSGLFHLVPKGSRIEGWEDYKGILQRIDRSGVYARTVIGVVYANDEYSYDQNVDERPRHVRATGDRGEPISSYAYAVYPSGAITTVAEATPEQIASSKSKARGADNAASPWRAPGAPMHRKVAVRLLEKHVATSAEDRREPISRSAANDVVIDATADYYQEP
B10: SSAP_109: SEQ ID NO: 278; Bacillus (multispecies) (protein, listed as Bacillus sp.)
chain: TQAEKLKNDIAKQEQKNEVAQDDKPKTILDVMMQHKESFEMALPKHLDADRLIRLAVTEFRKNPMLKECTPESLLGAVMQAAQVGLEPDALGSAYLVPYYNKNKNVKEVQLQIGYKGLIELVRRSGQVTSIVANEVYENDEFDFEYGINEKLYHKPTMDADRGKLKCFYAYARFKDGGHAFTVMSVEQINQIRDKFSKSQKNGKHFGPWADHYESMAKKTVIKQLVKYMPISVEIQNQITRDETVHSSFKEEPKPIYAFEESPDIIDAPIEN
B11: SSAP_226: SEQ ID NO: 395; Companilactobacillus furfuricola (protein, listed as Companilactobacillus furfuricola)
chain: VNNLAKLPIQTLVKEPKIVEKFESVLGNKSAQFVTSLINVVNSNQSLKNVDQMSVVASAMVAASLDLPINQDLGYMWLVPYGGKAQPQMGYKGYIQLAQRTGQYKHLNAVAVYEDEFQSYNPLTEQLDYEPHFKDRDSSEKPVGYVGYFELTSGFEKTVYWTRKQIDDHRQSFSKMSGKSKPSGVWATNFDAMALKTVLRNLISKWGPMSVEMQKAYESDEHATTISANDIKDIEVQEQEPATDVSQLINGSATEVNVNDSTTNSKDSE
B12: SSAP_164: SEQ ID NO: 333; Clostridium fimetarium (protein, listed as Clostridium fimetarium)
chain: ETIDIKQELASQAQTDSKKEVKLTKAMSIAEMIKAMMPEIKRALPSMITPERFTRIALSALNNTPELQACTPMSFISALLNAAQLGLEINSPLGHAYLIPYKNKGVLECQFQIGYLGLIALAYRNELMQTIQAQCVYENDEFLYEYGLNPKLVHRPATSDRGEPVFFYGLFKMINSGFGFCVMSKQEMDEFARTYSKGLASSFSPWKTSYNEMAKKTVIKQALKYAPIKTDFQKALSTDESIKYAISEDMTEAVNEIVSQNTEVA

System: gene editing with Cas9
Assay: Screen of 322 new SSAP proteins, gene editing activity with Cas9 (Table 5)
Assay type: cell-based
Design: Cas9 with SSAP activity: scale not given here
Settings: not given
How it was run: (§1)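 Read-out is gene editing activity. Candidates come from sequence data mining, are made synthetically, and are tested alongside either nuclease-active Cas9 or catalytically dead dCas9.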

Question: How did the “Cas9 with SSAP activity” value turn out when B1 was run?
Answer: −0.308

Question: With B2 as the molecule, how does the “Cas9 with SSAP activity” value read?
Answer: −1.160

Question: For B3, which “Cas9 with SSAP activity” value is on record?
Answer: −4.631

Question: B4 was tested. Which “Cas9 with SSAP activity” value did it give?
Answer: −1.710

Question: How did the “Cas9 with SSAP activity” value turn out when B5 was run?
Answer: −4.531

Question: B6 was tested. Which “Cas9 with SSAP activity” value did it give?
Answer: 0.254

Question: For B7, which “Cas9 with SSAP activity” value is on record?
Answer: −0.331

Question: Which “Cas9 with SSAP activity” value does the source give for B8 here?
Answer: −0.432

Question: Which “Cas9 with SSAP activity” value does the source give for B9 here?
Answer: −1.480

Question: B10 was tested. Which “Cas9 with SSAP activity” value did it give?
Answer: −1.697

Question: How did the “Cas9 with SSAP activity” value turn out when B11 was run?
Answer: −1.843

Question: B12 was tested. Which “Cas9 with SSAP activity” value did it give?
Answer: −2.221

Same assay, conditions: normalized

Question: Which “Cas9 with SSAP activity (normalized)” value does the source give for B1 here?
Answer: −0.267

Question: How did the “Cas9 with SSAP activity (normalized)” value turn out when B2 was run?
Answer: −0.694

Question: For B3, which “Cas9 with SSAP activity (normalized)” value is on record?
Answer: −0.809

Question: For B4, which “Cas9 with SSAP activity (normalized)” value is on record?
Answer: −0.437

Question: Which “Cas9 with SSAP activity (normalized)” value does the source give for B5 here?
Answer: −1.341

Question: Which “Cas9 with SSAP activity (normalized)” value does the source give for B6 here?
Answer: 0.626

Question: For B7, which “Cas9 with SSAP activity (normalized)” value is on record?
Answer: −0.351

Question: B8 was tested. Which “Cas9 with SSAP activity (normalized)” value did it give?
Answer: −0.643

Question: Which “Cas9 with SSAP activity (normalized)” value does the source give for B9 here?
Answer: −0.437

Question: Which “Cas9 with SSAP activity (normalized)” value does the source give for B10 here?
Answer: −0.475

Question: B11 was tested. Which “Cas9 with SSAP activity (normalized)” value did it give?
Answer: −1.377

Question: B12 was tested. Which “Cas9 with SSAP activity (normalized)” value did it give?
Answer: −0.998

System: gene editing with dCas9
Assay: Screen of 322 new SSAP proteins, gene editing activity with dCas9 (Table 5)
Assay type: cell-based
Design: dCas9 with SSAP activity: scale not given here
Settings: not given
How it was run: as §1

Question: Which “dCas9 with SSAP activity” value does the source give for B1 here?
Answer: −4.256

Question: For B2, which “dCas9 with SSAP activity” value is on record?
Answer: −4.178

Question: Which “dCas9 with SSAP activity” value does the source give for B3 here?
Answer: −4.250

Question: Which “dCas9 with SSAP activity” value does the source give for B4 here?
Answer: −4.326

Question: B5 was tested. Which “dCas9 with SSAP activity” value did it give?
Answer: −4.273

Question: B6 was tested. Which “dCas9 with SSAP activity” value did it give?
Answer: 0.863

Question: How did the “dCas9 with SSAP activity” value turn out when B7 was run?
Answer: −4.263

Question: B8 was tested. Which “dCas9 with SSAP activity” value did it give?
Answer: −4.259

Question: For B9, which “dCas9 with SSAP activity” value is on record?
Answer: −4.435

Question: For B10, which “dCas9 with SSAP activity” value is on record?
Answer: −4.168

Question: For B11, which “dCas9 with SSAP activity” value is on record?
Answer: −4.191

Question: With B12 as the molecule, how does the “dCas9 with SSAP activity” value read?
Answer: −4.310

Same assay, conditions: normalized

Question: B1 was tested. Which “dCas9 with SSAP activity (normalized)” value did it give?
Answer: −0.591

Question: For B2, which “dCas9 with SSAP activity (normalized)” value is on record?
Answer: −0.675

Question: Which “dCas9 with SSAP activity (normalized)” value does the source give for B3 here?
Answer: −0.686

Question: B4 was tested. Which “dCas9 with SSAP activity (normalized)” value did it give?
Answer: −0.647

Question: For B5, which “dCas9 with SSAP activity (normalized)” value is on record?
Answer: −1.117

Question: B6 was tested. Which “dCas9 with SSAP activity (normalized)” value did it give?
Answer: 0.407

Question: How did the “dCas9 with SSAP activity (normalized)” value turn out when B7 was run?
Answer: −0.702

Question: For B8, which “dCas9 with SSAP activity (normalized)” value is on record?
Answer: −1.301

Question: How did the “dCas9 with SSAP activity (normalized)” value turn out when B9 was run?
Answer: −0.734

Question: B10 was tested. Which “dCas9 with SSAP activity (normalized)” value did it give?
Answer: −0.640

Question: B11 was tested. Which “dCas9 with SSAP activity (normalized)” value did it give?
Answer: −0.610

Question: B12 was tested. Which “dCas9 with SSAP activity (normalized)” value did it give?
Answer: −0.557

System: gene editing with Cas9 and dCas9
Assay: Screen of 322 new SSAP proteins, activity across all experiments (Cas9 and dCas9, Table 5)
Assay type: cell-based
Design: scale not given here
Settings: not given
How it was run: as §1

Question: Which “Activity across all experiments” value does the source give for B1 here?
Answer: −2.282

Question: With B2 as the molecule, how does the “Activity across all experiments” value read?
Answer: −2.669

Question: With B3 as the molecule, how does the “Activity across all experiments” value read?
Answer: −4.441

Question: B4 was tested. Which “Activity across all experiments” value did it give?
Answer: −3.018

Question: Which “Activity across all experiments” value does the source give for B5 here?
Answer: −4.402

Question: For B6, which “Activity across all experiments” value is on record?
Answer: 0.558

Question: B7 was tested. Which “Activity across all experiments” value did it give?
Answer: −2.297

Question: With B8 as the molecule, how does the “Activity across all experiments” value read?
Answer: −2.345

Question: B9 was tested. Which “Activity across all experiments” value did it give?
Answer: −2.958

Question: With B10 as the molecule, how does the “Activity across all experiments” value read?
Answer: −2.932

Question: B11 was tested. Which “Activity across all experiments” value did it give?
Answer: −3.017

Question: B12 was tested. Which “Activity across all experiments” value did it give?
Answer: −3.266
